What is called Kd is the concentration at which binding is half-saturated.

Residue numbers refer to the chain shown, from its start.

Consider six molecules from patent US20150320880A1, “ANTIBODY DRUG CONJUGATES” (NOVARTIS AG, priority 2013, published 2015).

Test [1] has as its system Uke-1 cells. Kind of test: ADCC activity in vitro (Calcein release, NK3.3 effector cells). Format: cell-based. The note with it: effector to target ratio 20 to 1. As for the experimental part: In brief, Uke-1 cells were stained with Calcein acetoxy-methyl ester (Calcein-AM; Sigma-Aldrich catalog #17783-5MG, St. Louis, Mo.), washed twice, pipetted into a 96-well microtiterplate (96 well, U-bottomed, clear plastic; Corning Costar, catalog #650 160, Tewksbury, Mass.) at a concentration of 5000 cells per well and pre-incubated for 10 min with a serial dilution of the above mentioned antibodies and proteins (from 50,000 to 0.003 μg per ml) before adding the effector NK3.3 cells for 1 hour in an effector to target ratio of 20 to 1. In order to calculate the antibody specific lysis of the target cells, a parallel incubation of target cells only without antibody or effector cells served as a baseline and negative control, whereas the positive control or maximal lysis or hundred percent specific lysis was determined by lysis of target cells only with a 1% Triton-X 100 solution. […] Following a co-incubation of target and effector cells, the microtiterplate was centrifuged and an aliquot of the supernatant fluid was transferred to another microtiterplate (96 well, flat-bottomed, black with clear bottom; (Corning Costar, catalog #3904, Tewksbury, Mass.) and the concentration of free Calcein in solution was determined with a fluorescence counter (Victor 3 ® multilabel counter, Perkin Elmer, Waltham, Mass.).

Test [2] addresses T1, Human cKIT D1-5 (human cKIT tr. variant 2, residues 26-520, C-terminal His tag) (human, UniProt P10721 26-524).
T1 construct: also called human cKIT ECD; Human c-Kit ECD
Kind of test: SPR (Biacore T100), CM5 chip, method as in Example 7; MCC-DM1 conjugate.

The target of test [3] is mouse cKIT ECD. Kind of test: SPR (Biacore 2000) affinity measurement. The note with it: 25° C. In kind it is binding. As for the experimental part: (§1) Affinity of the antibodies to cKIT species orthologues and also to cKIT was determined using SPR technology using a Biacore® 2000 instrument (GE Healthcare, Pittsburgh, Pa.) and with CM5 sensor chips.
(§2) Briefly, HBS-P (0.01 M HEPES, pH 7.4, 0.15 M NaCl, 0.005% Surfactant P20) supplemented with 2% Odyssey® blocking buffer (Li-Cor Biosciences, Lincoln, Nebr.) was used as the running buffer for all the experiments. The immobilization level and analyte interactions were measured by response unit (RU). Pilot experiments were performed to test and confirm the feasibility of the immobilization of the anti-human Fc antibody (Catalog number BR100839, GE Healthcare, Pittsburgh, Pa.) and the capture of the test antibodies.
(§3) For kinetic measurements, the experiments were performed in which the antibodies were captured to the sensor chip surface via the immobilized anti-human Fc antibody and the ability of the cKIT proteins to bind in free solution was determined Briefly, 25 μg/ml of anti-human Fc antibody at pH 5 was immobilized on a CM5 sensor chip through amine coupling at flow rate of 5 μl/minute on all two flow cells to reach 10,500 RUs. 0.1-1 μg/ml of test antibodies were then injected at 10 μl/min for 1 minute. Captured levels of the antibodies were generally kept below 200 RUs. Subsequently, 3.125-50 nM of cKIT receptor extracellular domains (ECD) were diluted in a 2-fold series and injected at a flow rate of 40 μl/min for 3 min over both reference and test flow cells. Table of tested ECDs is listed below. Dissociation of the binding was followed for 10 min. After each injection cycle, the chip surface was regenerated with 3 M MgCl2 at 10 μl/min for 30 s.
A general note: Surface plasmon resonance follows binding to a sensor surface in real time, without labels.

For test [4], the target named is T2, human cKIT ECD (Homo sapiens, UniProt P10721).
T2 construct: Human cKIT tr. variant 2, residues 26-520-TAG; made in house; host or cells: HEK293 derived cell lines (293FS), transient transfection
Kind of test: SPR (Biacore 2000) affinity measurement. Format: binding. Conditions: 25° C. As for the experimental part:
as §1, §2, §3

In test [5] the target is T3, Mouse cKIT ECD, C-terminal 6x His (Sino Biological Inc, catalog number 50530-M08H) (mouse, UniProt P05532 25-527).
T3 construct: extracellular domain; Bought protein
T3 sequence (looked up): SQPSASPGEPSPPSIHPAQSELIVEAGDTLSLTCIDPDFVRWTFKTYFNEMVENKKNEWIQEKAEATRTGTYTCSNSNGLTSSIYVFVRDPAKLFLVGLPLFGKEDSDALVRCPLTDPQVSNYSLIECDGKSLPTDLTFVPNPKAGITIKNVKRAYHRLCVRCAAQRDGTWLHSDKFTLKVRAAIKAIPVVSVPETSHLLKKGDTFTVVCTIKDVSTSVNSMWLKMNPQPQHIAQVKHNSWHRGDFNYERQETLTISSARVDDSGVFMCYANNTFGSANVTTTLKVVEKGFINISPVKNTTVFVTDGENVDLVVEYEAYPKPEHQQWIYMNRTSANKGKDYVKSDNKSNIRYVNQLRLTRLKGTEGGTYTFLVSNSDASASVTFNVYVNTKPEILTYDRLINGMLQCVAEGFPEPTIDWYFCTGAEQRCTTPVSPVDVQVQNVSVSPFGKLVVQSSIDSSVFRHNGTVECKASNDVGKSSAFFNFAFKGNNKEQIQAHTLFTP
Kind of test: SPR (Biacore 2000), antibody captured on anti-human Fc.

The target of test [6] is T4, Rat cKIT D1-5 (residues 25-526, C-terminal mFc) (rat).
T4 construct: The entry includes the linker and mouse Fc tag; also called rat cKIT-mFc
T4 chain: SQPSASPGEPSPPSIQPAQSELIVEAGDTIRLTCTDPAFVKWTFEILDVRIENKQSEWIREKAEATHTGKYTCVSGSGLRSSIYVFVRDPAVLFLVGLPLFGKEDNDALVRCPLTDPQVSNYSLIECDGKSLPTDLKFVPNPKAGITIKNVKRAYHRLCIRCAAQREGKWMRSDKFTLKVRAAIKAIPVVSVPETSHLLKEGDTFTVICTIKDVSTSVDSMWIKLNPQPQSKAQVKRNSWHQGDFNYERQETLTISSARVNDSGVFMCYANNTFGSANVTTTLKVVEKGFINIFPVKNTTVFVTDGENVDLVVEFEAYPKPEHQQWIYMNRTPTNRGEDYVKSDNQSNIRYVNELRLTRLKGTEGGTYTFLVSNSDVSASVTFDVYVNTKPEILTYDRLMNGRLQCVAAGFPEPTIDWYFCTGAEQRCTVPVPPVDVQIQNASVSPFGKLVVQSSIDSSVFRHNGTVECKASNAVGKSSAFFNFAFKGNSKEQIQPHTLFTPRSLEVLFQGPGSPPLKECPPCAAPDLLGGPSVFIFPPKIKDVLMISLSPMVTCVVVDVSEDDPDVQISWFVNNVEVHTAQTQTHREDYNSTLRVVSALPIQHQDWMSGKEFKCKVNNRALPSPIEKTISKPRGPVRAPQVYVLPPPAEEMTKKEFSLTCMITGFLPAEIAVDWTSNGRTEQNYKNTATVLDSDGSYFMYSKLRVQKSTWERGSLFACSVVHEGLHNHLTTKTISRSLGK
The test is described as above.

Test [7] has as its target T5, Human cKIT D1-3 (human cKIT tr. variant 1, residues 26-311, tagged) (human, UniProt P10721 26-311).
T5 construct: also called cKIT subdomains 1-3
Kind of test: ELISA on coated cKIT subdomain constructs (Example 6).

Test [8] concerns the target T1, Human cKIT D1-5 (human cKIT tr. variant …). Kind of test: SPR (Biacore T100), CM5 chip, method as in Example 7; unconjugated antibody.
The target is the same in test [9]. Kind of test: SPR (Biacore 2000), antibody captured on anti-human Fc, cKIT ECD as analyte, 25 C, 1:1 fit.
Test [10] deals with T6, Cynomolgus monkey cKIT D1-5 (residues 25-520, C-terminal His tag) (cynomolgus monkey, UniProt P10721 25-520 (human entry)).
T6 construct: the signal peptide was not part of the protein in the assay; also called cyno cKIT; cynomolgus monkey ECD
T6 chain: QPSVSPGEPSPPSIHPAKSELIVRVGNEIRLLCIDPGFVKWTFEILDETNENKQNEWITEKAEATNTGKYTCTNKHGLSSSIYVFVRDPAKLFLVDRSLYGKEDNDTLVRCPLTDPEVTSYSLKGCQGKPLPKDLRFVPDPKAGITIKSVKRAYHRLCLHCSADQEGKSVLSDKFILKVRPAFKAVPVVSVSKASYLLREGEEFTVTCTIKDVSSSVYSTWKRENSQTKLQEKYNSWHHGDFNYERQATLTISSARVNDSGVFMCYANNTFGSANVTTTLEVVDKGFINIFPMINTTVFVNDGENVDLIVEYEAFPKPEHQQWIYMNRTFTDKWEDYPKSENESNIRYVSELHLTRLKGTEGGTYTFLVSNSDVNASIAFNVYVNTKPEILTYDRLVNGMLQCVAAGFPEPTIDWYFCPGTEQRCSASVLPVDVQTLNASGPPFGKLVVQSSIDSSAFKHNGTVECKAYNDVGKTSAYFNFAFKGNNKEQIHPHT
Described as above.

Test [11] concerns the target T3, Mouse cKIT ECD, C-terminal 6x His (Sino …). The test is described as above.

T1 sequence (P10721 other isoform, or with tags, fused parts or gaps mutant limits assumed): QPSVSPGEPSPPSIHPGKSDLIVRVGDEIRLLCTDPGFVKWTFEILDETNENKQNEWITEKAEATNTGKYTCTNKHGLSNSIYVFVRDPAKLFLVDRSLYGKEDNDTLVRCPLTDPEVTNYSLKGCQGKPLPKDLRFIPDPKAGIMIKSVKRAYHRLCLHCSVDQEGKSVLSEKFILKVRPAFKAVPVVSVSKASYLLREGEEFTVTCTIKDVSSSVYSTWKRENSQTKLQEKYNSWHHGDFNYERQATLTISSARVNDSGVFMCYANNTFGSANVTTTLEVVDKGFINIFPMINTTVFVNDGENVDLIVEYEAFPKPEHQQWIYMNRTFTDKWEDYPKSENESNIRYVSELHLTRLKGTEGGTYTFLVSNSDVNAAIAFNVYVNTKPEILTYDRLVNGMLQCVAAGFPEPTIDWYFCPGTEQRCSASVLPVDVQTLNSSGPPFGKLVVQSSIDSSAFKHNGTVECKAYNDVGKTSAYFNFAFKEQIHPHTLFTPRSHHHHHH
T5 sequence (P10721 other isoform, or with tags, fused parts or gaps mutant limits assumed): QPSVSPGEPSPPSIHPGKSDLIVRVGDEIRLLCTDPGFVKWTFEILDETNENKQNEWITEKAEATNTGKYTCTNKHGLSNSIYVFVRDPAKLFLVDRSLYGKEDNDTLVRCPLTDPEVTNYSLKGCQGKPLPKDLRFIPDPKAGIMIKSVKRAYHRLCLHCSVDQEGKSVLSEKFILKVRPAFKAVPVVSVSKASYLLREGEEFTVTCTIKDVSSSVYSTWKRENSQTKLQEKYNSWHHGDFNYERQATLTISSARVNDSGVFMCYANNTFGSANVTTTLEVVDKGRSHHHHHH

In the case of MabCampath [reference compound], the “ADCC killing of target cells” value in test [1] is on record as “mediated ADCC killing of the target cells”.

B1: NEG085-MCC-DM1 (antibody, human IgG1, kappa, V domains shown)
VH: EVQLVESGGGLVQPGGSLRLSCAASGFAFSGYYMAWVRQAPGKGLEWVANINYPGSSTYYLDSVKGRFTISRDNAKNSLYLQMNSLRAEDTAVYYCARGDYYGTTYWYFDVWGQGTTVTVSS
VL: DIQMTQSPSSLSASVGDRVTITCRASQSISSYLNWYQQKPGKAPKLLIYYTSRLQSGVPSRFSGSGSGTDFTLTISSLQPEDFATYYCQQGRRLWSFGGGTKVEIKR
modifications: DM1 linked through the MCC (SMCC) linker to primary amines of the antibody, sites not stated; DM1 linked through the MCC (SMCC) linker to primary amines of the antibody, sites not stated; average MAR 3.5 (Table 7)
notes: Antibody drug conjugate of NEG085
B1 yielded a Kd in test [2] of 5.2 nM.

B2: NEG087: anti-cKIT antibody of Table 1; VH SEQ ID NO 118, VL SEQ ID NO 127 (antibody, V domains shown)
VH: B1 VH with A28T, G31D, N50S, Y53Q, P54N, G55T, S56G, K65R
VL: DIQMTQSPSSLSASVGDRVTITCRASQSISSYLNWYQQKPGKAPKLLIYYTSRLQSGVPSRFSGSGSGTDFTLTISSLQPEDFATYYCQQGRRLWSFGGGTKVEIK
For the molecule B2, in test [3], the “Affinity mouse cKIT (nM)” value is given as “Not reactive”. For the same molecule, the “Affinity human cKIT (nM)” value in test [4] is listed as “nanomolar level”.

B3: NEG086-MCC-DM1 (antibody, human IgG1, kappa, V domains shown)
VH: B1 VH with A28T, G31D, Y53Q, P54I, G55A, S56G, L61V, K65Q
VL: B1 VL
modifications: DM1 linked through the MCC (SMCC) linker to primary amines of the antibody, sites not stated; DM1 linked through the MCC (SMCC) linker to primary amines of the antibody, sites not stated; average MAR 3.5 (Table 7)
notes: Antibody drug conjugate of NEG086
With B3, in [2], the Kd worked out at 1.8 nM.

B4: NEG026 (antibody, human IgG1, kappa, V domains shown)
VH: B1 VH with A28T, G31D, Y53Q, P54N, G55T, S56G, L61V, K65Q
VL: EIVMTQSPATLSLSPGERATLSCRASQDISNYLNWYQQKPGQAPRLLIYYTSRLQSGIPARFSGSGSGTDYTLTISSLEPEDFAVYYCQQGKKLWSFGGGTKVEIKR
notes: Humanized, optimized variant of 9P3; human IgG1 kappa
Consider B4, for which the binding result is on record as “no binding (tested: 3.125-50 nM of cKIT ECD injected)” in test [5], “no binding (tested: 3.125-50 nM of cKIT ECD injected)” in test [6] and “binds” in test [7].

B5: 20376 (antibody, human IgG1, lambda, V domains shown)
VH: QVQLVQSGAEVKKPGSSVKVSCKASGGTFSSYAISWVRQAPGQGLEWMGGIIPMSGRTTYAQKFQGRVTITADESTSTAYMELSSLRSEDTAVYYCARDYGPEAPDYGQSTSYFWYYAFDPWGQGTLVTVSS
VL: DIELTQPPSVSVSPGQTASITCSGDNIPSYFVHWYQQKPGQAPVLVIYDDNDRPSGIPERFSGSNSGNTATLTISGTQAEDEADYYCSSWDQDTVVFGGGTKLTVLG
notes: human IgG1 lambda
For B5, the Kd in test [8] came out at 9.1 nM; in test [9] it was 9.1 nM; in test [10], 4.8 nM; in test [11] it was 2.5 nM. Besides, the binding result in test [6] is on record as “no binding (tested: 3.125-50 nM of cKIT ECD injected)”.
